Laboratory results from patent US9266930.
Where two headings read alike, the source gives them in different places.

Experiments:
HLA-A*1101 (human) [1] = molecular target: HLA-A*1101 (human)
HLA-A*1101 (Human) [2] = molecular target: HLA-A*1101 (Human)
HLA-A*0301 (human) [3] = assay: competition with 125I-labeled probe peptide for purified HLA, gel filtration
HLA-A*1101 (human) [4] = assay: as above
HLA-A*6801 (human) [5] = assay: as above
HLA-A*3101 (human) [6] = assay: as above
HLA-A*3301 (human) [7] = assay: as above
HLA-A*0301 (human) [8] = molecular target: HLA-A*0301 (human)
HLA-A*1101 (human) [9] = molecular target: HLA-A*1101 (human); remark: listed apart in the source
HLA-A*3101 (human) [10] = molecular target: HLA-A*3101 (human)
HLA-A*3301 (human) [11] = molecular target: HLA-A*3301 (human)
HLA-A*6801 (human) [12] = molecular target: HLA-A*6801 (human)

## […] (EXP position 83, 10 amino acids) (peptide; other documents disagree on this pair)
HLA-A*0201 (Human)
  binding affinity ratio (IC50 of standard peptide / IC50 of test peptide): 0.038

## […] (EXP position 84, 9 amino acids) (peptide; other documents disagree on this pair)
HLA-A*0201 (Human)
  binding affinity ratio (IC50 of standard peptide / IC50 of test peptide): 0.035

## […] (EXP position 84, 10 amino acids) (peptide; other documents disagree on this pair)
HLA-A*0201 (Human)
  binding affinity ratio (IC50 of standard peptide / IC50 of test peptide): 0.0059

## […] (LSA position 40, 10-mer) (peptide; other documents disagree on this pair)
HLA-A*1101 (human) [1]
  binding affinity ratio (IC50 of standard peptide / IC50 of test peptide): 0.0002

## […] (LSA position 41, 9-mer) (peptide; other documents disagree on this pair)
HLA-A*1101 (human) [1]
  binding affinity ratio (IC50 of standard peptide / IC50 of test peptide): 0.003

## […] (LSA position 49, 9-mer) (peptide; other documents disagree on this pair)
HLA-A*1101 (human) [1]
  binding affinity ratio (IC50 of standard peptide / IC50 of test peptide): 0.037

## […] (LSA position 49, 10-mer) (peptide; other documents disagree on this pair)
HLA-A*1101 (human) [1]
  binding affinity ratio (IC50 of standard peptide / IC50 of test peptide): 0.0018

## […] (LSA position 520, 10-mer) (peptide; other documents disagree on this pair)
HLA-A*1101 (human) [1]
  binding affinity ratio (IC50 of standard peptide / IC50 of test peptide): 0.0002

## […] (LSA position 1183, 10-mer) (peptide; other documents disagree on this pair)
HLA-A*1101 (human) [1]
  binding affinity ratio (IC50 of standard peptide / IC50 of test peptide): 0.0002

## […] (LSA position 1387, 10-mer) (peptide; other documents disagree on this pair)
HLA-A*1101 (human) [1]
  binding affinity ratio (IC50 of standard peptide / IC50 of test peptide): 0.0002

## […] (LSA position 1574, 10-mer) (peptide; other documents disagree on this pair)
HLA-A*1101 (human) [1]
  binding affinity ratio (IC50 of standard peptide / IC50 of test peptide): 0.0002

## […] (LSA position 1591, 10-mer) (peptide; other documents disagree on this pair)
HLA-A*1101 (human) [1]
  binding affinity ratio (IC50 of standard peptide / IC50 of test peptide): 0.0002

## […] (LSA position 1703, 9-mer) (peptide; other documents disagree on this pair)
HLA-A*1101 (human) [1]
  binding affinity ratio (IC50 of standard peptide / IC50 of test peptide): 0.0027

## […] (LSA position 1703, 10-mer) (peptide; other documents disagree on this pair)
HLA-A*1101 (human) [1]
  binding affinity ratio (IC50 of standard peptide / IC50 of test peptide): 0.0002

## […] (LSA position 1726, 10-mer) (peptide; other documents disagree on this pair)
HLA-A*1101 (human) [1]
  binding affinity ratio (IC50 of standard peptide / IC50 of test peptide): 0.0002

## […] (LSA position 1750, 10-mer) (peptide; other documents disagree on this pair)
HLA-A*1101 (human) [1]
  binding affinity ratio (IC50 of standard peptide / IC50 of test peptide): 0.0002

## […] (LSA position 1855, 10-mer) (peptide; other documents disagree on this pair)
HLA-A*1101 (human) [1]
  binding affinity ratio (IC50 of standard peptide / IC50 of test peptide): 0.0045

## […] (LSA, position 68, 9 amino acids) (peptide; other documents disagree on this pair)
HLA-A*1101 (Human) [2]
  binding affinity ratio (IC50 of standard peptide / IC50 of test peptide): 0.0038

## […] (LSA, position 1704, 9 amino acids) (peptide; other documents disagree on this pair)
HLA-A*1101 (Human) [2]
  binding affinity ratio (IC50 of standard peptide / IC50 of test peptide): 0.0007

## […] (LSA, position 1825, 10 amino acids) (peptide; other documents disagree on this pair)
HLA-A*1101 (Human) [2]
  binding affinity ratio (IC50 of standard peptide / IC50 of test peptide): 0.0009

## […] (LSA, position 1834, 10 amino acids) (peptide; other documents disagree on this pair)
HLA-A*1101 (Human) [2]
  binding affinity ratio (IC50 of standard peptide / IC50 of test peptide): 0.0007

## […] (LSA, position 1854, 9 amino acids) (peptide; other documents disagree on this pair)
HLA-A*1101 (Human) [2]
  binding affinity ratio (IC50 of standard peptide / IC50 of test peptide): 0.034

## […] (LSA, position 1854, 10 amino acids) (peptide; other documents disagree on this pair)
HLA-A*1101 (Human) [2]
  binding affinity ratio (IC50 of standard peptide / IC50 of test peptide): 0.049

## […] (P. falciparum EXP-1, position 79, 10 amino acids) (peptide; other documents disagree on this pair)
HLA-A*0201 (Human)
  binding affinity ratio (IC50 of standard peptide / IC50 of test peptide): 0.0022

## […] (P. falciparum EXP-1, position 80, 9 amino acids) (peptide; other documents disagree on this pair)
HLA-A*0201 (Human)
  binding affinity ratio (IC50 of standard peptide / IC50 of test peptide): 0.021

## […] (P. falciparum LSA, position 1388, 9 amino acids) (peptide; other documents disagree on this pair)
HLA-A*0301 (human) [3]
  binding affinity ratio (relative to standard peptide): 0.0001
HLA-A*1101 (human) [4]
  binding affinity ratio (relative to standard peptide): 0.0002

## […] (P. falciparum LSA, position 1575, 9 amino acids) (peptide; other documents disagree on this pair)
HLA-A*0301 (human) [3]
  binding affinity ratio (relative to standard peptide): 0.0001
HLA-A*1101 (human) [4]
  binding affinity ratio (relative to standard peptide): 0.0002

## […] (P. falciparum LSA, position 1609, 9 amino acids) (peptide; other documents disagree on this pair)
HLA-A*0301 (human) [3]
  binding affinity ratio (relative to standard peptide): 0.0001
HLA-A*1101 (human) [4]
  binding affinity ratio (relative to standard peptide): 0.0002

## […] (P. falciparum LSA, position 1626, 10 amino acids) (peptide; other documents disagree on this pair)
HLA-A*0301 (human) [3]
  binding affinity ratio (relative to standard peptide): 0.0001
HLA-A*1101 (human) [4]
  binding affinity ratio (relative to standard peptide): 0.0002

## […] (P. falciparum LSA, position 1660, 10 amino acids) (peptide; other documents disagree on this pair)
HLA-A*6801 (human) [5]
  binding affinity ratio (relative to standard peptide): 0.0029
HLA-A*0301 (human) [3]
  binding affinity ratio (relative to standard peptide): 0.0001
HLA-A*1101 (human) [4]
  binding affinity ratio (relative to standard peptide): 0.0002
HLA-A*3101 (human) [6]
  binding affinity ratio (relative to standard peptide): 0.0009
HLA-A*3301 (human) [7]
  binding affinity ratio (relative to standard peptide): 0.0008

## […] (P. falciparum LSA, position 1676, 9-mer) (peptide; other documents disagree on this pair)
HLA-A*1101 (human) [1]
  binding affinity ratio (IC50 of standard peptide / IC50 of test peptide): 0.0013

## […] (P. falciparum LSA, position 1713, 10 amino acids) (peptide; other documents disagree on this pair)
HLA-A*6801 (human) [5]
  binding affinity ratio (relative to standard peptide): 0.0046
HLA-A*1101 (human) [4]
  binding affinity ratio (relative to standard peptide): 0.0002
HLA-A*3101 (human) [6]
  binding affinity ratio (relative to standard peptide): 0.0009
HLA-A*3301 (human) [7]
  binding affinity ratio (relative to standard peptide): 0.0055

## […] (P. falciparum SSP2, position 31, 9 amino acids) (peptide; other documents disagree on this pair)
HLA-A*0301 (human) [8]
  binding affinity ratio (relative to standard peptide): 0.0005
HLA-A*1101 (human) [9]
  binding affinity ratio (relative to standard peptide): 0.0002

## […] (Pf LSA 16, 9-mer A03 supermotif peptide) (peptide; other documents disagree on this pair)
HLA-A*0301 (human) [8]
  binding affinity ratio (IC50 of standard peptide / IC50 of test peptide): 0.026
HLA-A*1101 (human) [9]
  binding affinity ratio (IC50 of standard peptide / IC50 of test peptide): 0.01

## […] (Pf LSA 61, 10-mer A03 supermotif peptide) (peptide; other documents disagree on this pair)
HLA-A*0301 (human) [8]
  binding affinity ratio (IC50 of standard peptide / IC50 of test peptide): 0.0004

## […] (Pf LSA 68, 9-mer A03 supermotif peptide) (peptide; other documents disagree on this pair)
HLA-A*0301 (human) [8]
  binding affinity ratio (IC50 of standard peptide / IC50 of test peptide): 0.0028
HLA-A*1101 (human) [9]
  binding affinity ratio (IC50 of standard peptide / IC50 of test peptide): 0.0038

## […] (Pf LSA 1631, 10-mer A03 supermotif peptide) (peptide; other documents disagree on this pair)
HLA-A*3101 (human) [10]
  binding affinity ratio (IC50 of standard peptide / IC50 of test peptide): 0.0086
HLA-A*3301 (human) [11]
  binding affinity ratio (IC50 of standard peptide / IC50 of test peptide): 0.0011

## […] (Pf LSA 1693, 9-mer A03 supermotif peptide) (peptide; other documents disagree on this pair)
HLA-A*6801 (human) [12]
  binding affinity ratio (IC50 of standard peptide / IC50 of test peptide): 0.0054

## […] (Pf LSA 1704, 9-mer A03 supermotif peptide) (peptide; other documents disagree on this pair)
HLA-A*6801 (human) [12]
  binding affinity ratio (IC50 of standard peptide / IC50 of test peptide): 0.32
HLA-A*1101 (human) [9]
  binding affinity ratio (IC50 of standard peptide / IC50 of test peptide): 0.0007
HLA-A*3101 (human) [10]
  binding affinity ratio (IC50 of standard peptide / IC50 of test peptide): 0.0025
HLA-A*3301 (human) [11]
  binding affinity ratio (IC50 of standard peptide / IC50 of test peptide): 0.0043

## […] (Pf LSA 1825, 10-mer A03 supermotif peptide) (peptide; other documents disagree on this pair)
HLA-A*1101 (human) [9]
  binding affinity ratio (IC50 of standard peptide / IC50 of test peptide): 0.0009

## […] (Pf LSA 1830, 10-mer A03 supermotif peptide) (peptide; other documents disagree on this pair)
HLA-A*0301 (human) [8]
  binding affinity ratio (IC50 of standard peptide / IC50 of test peptide): 0.0004

## […] (Pf LSA 1834, 10-mer A03 supermotif peptide) (peptide; other documents disagree on this pair)
HLA-A*0301 (human) [8]
  binding affinity ratio (IC50 of standard peptide / IC50 of test peptide): 0.0081
HLA-A*1101 (human) [9]
  binding affinity ratio (IC50 of standard peptide / IC50 of test peptide): 0.0007
HLA-A*3101 (human) [10]
  binding affinity ratio (IC50 of standard peptide / IC50 of test peptide): 0.0042
HLA-A*3301 (human) [11]
  binding affinity ratio (IC50 of standard peptide / IC50 of test peptide): 0.0009

## […] (Pf LSA 1854, 9-mer A03 supermotif peptide) (peptide; other documents disagree on this pair)
HLA-A*1101 (human) [9]
  binding affinity ratio (IC50 of standard peptide / IC50 of test peptide): 0.034

## […] (Pf LSA 1854, 10-mer A03 supermotif peptide) (peptide; other documents disagree on this pair)
HLA-A*1101 (human) [9]
  binding affinity ratio (IC50 of standard peptide / IC50 of test peptide): 0.049

## […] (Pf LSA position 1751, 9-mer) (peptide; other documents disagree on this pair)
HLA-A*1101 (human) [1]
  binding affinity ratio (IC50 of standard peptide / IC50 of test peptide): 0.0018
